Biological target: Concanavalin A (Con A) (UniProt P02866 164-281+30-148, internal_change)
Test: particle flow cytometry; 10 nM Con A; binding buffer, salt, pH and temperature not given in the material (hemagglutination: 30 min preincubation at RT)

B1: ConA-3-1n (ssDNA)
DNA: GATCCCAGTCCGAAGTAATCGTTGCATCTGCACGACTGGTGAGCTTGAGTGGCAGAAGAACTTGTGCAAACGGCTATAGG
modifications: none
- binding result: no binding

— article PMC6929039
